This is an account of results in PMC9434101 (The EMBO Journal, 2022).

For experiment [1], the target named is T1, 6xHis-tagged AIFM1(103–613) (UniProt O95831 103-613). Description: ITC.
Experiment [2] deals with T1, 6xHis-tagged AIFM1(103–613). Description: ITC. This is another data set of the same source. In general terms: In ITC the heat of successive injections is recorded.

Ends that are not written are not given here.

T1 sequence (O95831 103-613): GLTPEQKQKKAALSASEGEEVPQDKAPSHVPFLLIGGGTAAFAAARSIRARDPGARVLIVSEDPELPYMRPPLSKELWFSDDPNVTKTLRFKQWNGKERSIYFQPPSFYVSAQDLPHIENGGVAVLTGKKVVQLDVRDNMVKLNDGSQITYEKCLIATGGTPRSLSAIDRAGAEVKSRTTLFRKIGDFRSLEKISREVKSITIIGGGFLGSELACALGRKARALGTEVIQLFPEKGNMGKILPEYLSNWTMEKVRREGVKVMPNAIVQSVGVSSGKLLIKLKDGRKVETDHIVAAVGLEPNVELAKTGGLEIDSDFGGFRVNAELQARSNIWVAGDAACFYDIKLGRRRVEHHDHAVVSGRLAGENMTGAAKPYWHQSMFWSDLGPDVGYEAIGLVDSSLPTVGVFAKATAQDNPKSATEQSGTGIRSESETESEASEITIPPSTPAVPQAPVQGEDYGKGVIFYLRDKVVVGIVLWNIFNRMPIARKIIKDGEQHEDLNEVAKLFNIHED

B1: recombinant full-length MIA40/CHCHD4^C4S,C53S,C55S (natural protein)
chain: MSYSRQEGKDRIIFVTKEDHETPSSAELVADDPNDPYEEHGLILPNGNINWNSPSLGGMASGPCGEQFKSAFSCFHYSTEEIKGSDCVDQFRAMQECMQKYPDLYPQEDEDEEEEREKKPAEQAEETAPIEATATKEEEGSS
As to B1, the “stoichiometry N” value in experiment [1] amounted to 2 AIFM1 per MIA40/CHCHD4.

In experiment [2], GSEGKDRIIFVTKEDHETPSSAEL-NH2 [CHCHD4/MIA40 peptide (unlabeled), GSEGKDRIIFVTKEDHETPSSAEL-NH2] registered a Kd of 2940 nM.

The term stoichiometry N denotes a count of units in the complex or per binding partner. For orientation: Kd means the concentration at which binding is half-saturated. High values mean lower affinity, low ones higher affinity.
